Assay results from patent US20040106173A1, “Bot1: target for antifungal agents” (The University of Miami, priority 2001, published 2004).

T1: HA-tagged Tea1p (nmt1-HA3tea1) (Schizosaccharomyces pombe, UniProt P87061 1-1147)
T1 construct: also called HA-Tea1p
T1 sequence (looked up): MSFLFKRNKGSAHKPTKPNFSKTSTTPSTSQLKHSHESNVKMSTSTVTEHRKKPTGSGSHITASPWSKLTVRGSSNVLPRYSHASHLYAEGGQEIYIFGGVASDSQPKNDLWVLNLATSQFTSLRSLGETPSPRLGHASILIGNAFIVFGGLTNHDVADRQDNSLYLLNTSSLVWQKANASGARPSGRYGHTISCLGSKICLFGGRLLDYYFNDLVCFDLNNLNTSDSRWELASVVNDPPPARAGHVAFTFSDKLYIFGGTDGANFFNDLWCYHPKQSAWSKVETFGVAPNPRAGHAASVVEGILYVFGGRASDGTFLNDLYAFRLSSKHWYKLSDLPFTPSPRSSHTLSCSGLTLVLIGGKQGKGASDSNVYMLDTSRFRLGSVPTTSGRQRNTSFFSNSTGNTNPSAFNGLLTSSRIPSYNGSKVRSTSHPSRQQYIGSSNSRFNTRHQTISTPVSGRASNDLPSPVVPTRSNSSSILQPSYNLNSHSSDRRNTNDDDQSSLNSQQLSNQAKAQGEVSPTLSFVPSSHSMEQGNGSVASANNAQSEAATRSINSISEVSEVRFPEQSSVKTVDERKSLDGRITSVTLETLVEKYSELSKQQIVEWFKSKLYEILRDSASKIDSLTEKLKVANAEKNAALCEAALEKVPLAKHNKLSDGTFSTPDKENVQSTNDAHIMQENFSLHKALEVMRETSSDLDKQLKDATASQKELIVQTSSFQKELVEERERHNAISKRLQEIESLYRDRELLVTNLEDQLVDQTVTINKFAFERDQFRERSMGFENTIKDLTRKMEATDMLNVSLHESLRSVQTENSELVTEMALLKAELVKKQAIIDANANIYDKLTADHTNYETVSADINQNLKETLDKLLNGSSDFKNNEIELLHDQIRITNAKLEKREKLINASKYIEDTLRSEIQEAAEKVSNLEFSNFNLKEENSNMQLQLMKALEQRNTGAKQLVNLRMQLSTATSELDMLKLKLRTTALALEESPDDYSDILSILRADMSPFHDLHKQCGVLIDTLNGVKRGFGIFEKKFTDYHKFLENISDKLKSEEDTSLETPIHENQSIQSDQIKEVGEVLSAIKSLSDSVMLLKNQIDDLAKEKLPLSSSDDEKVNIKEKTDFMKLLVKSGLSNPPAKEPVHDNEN

T2: HA-tagged Cdc23p (pRep41-HA3cdc23) (fission yeast, UniProt O42709 1-593)
T2 construct: also called HA-Cdc23p; HA-Cdc23
T2 sequence (looked up): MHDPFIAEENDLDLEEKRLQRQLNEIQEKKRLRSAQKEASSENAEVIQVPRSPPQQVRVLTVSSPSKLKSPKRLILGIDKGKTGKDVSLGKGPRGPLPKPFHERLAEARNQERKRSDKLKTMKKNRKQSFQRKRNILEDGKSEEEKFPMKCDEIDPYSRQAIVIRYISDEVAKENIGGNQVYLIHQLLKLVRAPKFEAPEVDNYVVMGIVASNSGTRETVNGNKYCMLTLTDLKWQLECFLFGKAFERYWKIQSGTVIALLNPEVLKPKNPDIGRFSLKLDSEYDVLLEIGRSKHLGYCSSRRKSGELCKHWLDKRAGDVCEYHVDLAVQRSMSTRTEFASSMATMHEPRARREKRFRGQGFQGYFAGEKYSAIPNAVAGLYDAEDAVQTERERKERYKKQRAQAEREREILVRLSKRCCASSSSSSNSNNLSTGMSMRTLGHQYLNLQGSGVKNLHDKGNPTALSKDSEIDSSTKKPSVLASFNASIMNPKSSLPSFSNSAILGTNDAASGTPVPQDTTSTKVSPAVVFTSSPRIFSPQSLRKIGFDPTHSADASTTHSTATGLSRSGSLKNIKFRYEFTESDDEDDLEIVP

T3: HA-tagged Bot1p (HA3-bot1, pRep41-HA3bot1)
T3 chain: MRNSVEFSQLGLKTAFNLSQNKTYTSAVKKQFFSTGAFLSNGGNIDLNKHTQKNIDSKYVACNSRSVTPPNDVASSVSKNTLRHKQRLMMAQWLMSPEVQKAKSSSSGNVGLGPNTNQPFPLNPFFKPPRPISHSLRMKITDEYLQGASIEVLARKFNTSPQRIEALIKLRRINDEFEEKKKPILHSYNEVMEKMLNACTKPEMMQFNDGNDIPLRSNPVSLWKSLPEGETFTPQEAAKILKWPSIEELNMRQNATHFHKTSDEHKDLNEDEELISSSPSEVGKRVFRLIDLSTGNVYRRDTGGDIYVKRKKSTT


Legend:
[1] = biological target: T1, HA-tagged Tea1p (nmt1-HA3tea1); test: glutathione beads carrying GST-Orb6p with co-purified HA-Bot1p, incubated with an extract containing HA-Tea1p
Procedure: (§1) Immunoblot analysis was performed using standard methodology. For co-purification experiments, ade6-704 ura4-D18 leu1-32 h-cells co-expressing HA-tagged Bot1p and GST-tagged Orb6p (FV17p), or cells co-expressing HA-tagged Bot1p and GST alone (FV16p) as a control were cultured, for 15 hr at 32° C. in the absence of thiamine. HA₃-bot1 was moderately expressed from an attenuated nmt1 promoter (10). GST-tagged fusions were constructed using the pESP plasmid (Qiagen), which also contains a nmt1 promoter. Cells were then re-suspended in HB buffer and broken using a FastPrep FP120 bead beater (Savant). Extracts were spun at 15K rpm for 15 min. GST-tagged Orb6 or GST alone was purified using glutathione beads (Molecular Probes).
Glutathione beads were washed three times in HB buffer and then eluted. The eluate was run on a 10% polyacrylamide gel, blotted on nitrocellulose, and probed with a primary anti-HA antibody (Covance) or, separately, with a primary anti-GST antibody (Molecular Probes) and with a horseradish peroxidase-conjugated secondary antibody (ECL, Amersham).
To investigate whether Bot1p is able to form a complex with Tea1p and Orb6p, we determined if these proteins co-immunoprecipitate in cell extracts, if they interact in the yeast two-hybrid system, and if they are able to associate in vitro. […]

[2] = biological target: T2, HA-tagged Cdc23p (pRep41-HA3cdc23); test: co-purification on glutathione resin from fission yeast extracts, co-expressed
Procedure: as §1
Glutathione beads were washed three times in HB buffer and then eluted. […]
To confirm this interaction between Bot1p and Orb6p in fission yeast extracts, HA-Bot1p and GST-Orb6p were co-expressed in fission yeast cells, and GST-Orb6p was purified using glutathione-coupled resin. […] Furthermore, neither GST nor GST-Orb6p co-purified with HA-tagged Cdc23p, when co-expressed as an additional control for specificity.

[3] = biological target: T3, HA-tagged Bot1p (HA3-bot1, …)
[4] = biological target: Tea1p fused to the DNA binding domain of GAL4 (pAS1) (Schizosaccharomyces pombe, UniProt P04386 1-147; P87061 1-1147); test: yeast two-hybrid (HIS3 and LACZ reporters)
From the text: (§2) The tea1 gene was fused to the DNA binding domain of GAL4 in a plasmid (pAS1) carrying the trp1 marker. The orb6 gene was fused to the DNA binding domain of GAL4 (pAS1-orb6) and to the GAL4 activator domain (pACT2-orb6). The cDNA library was cloned to the transcription activator domain of GAL4 in a plasmid (pACT) carrying the leu2 marker. Plasmids pAS1, pACT2, pSE1111 (pACT-SNF4), pSE1112 (pAS1-SNF1), pAS1-p53, pAS1-lamin and the S. pombe library prepared in phage λ vectors and plasmids pAS1-SNF1 and pAS1-lamin, both harbored in Y187 strain, were kindly provided by Dr. S. Elledge. The test for cell growth on medium lacking histidine, the beta-galactosidase activation assay and the mating test to detect interaction specificity were performed as described (14). After screening 2×10⁶ transformants, we found five proteins that interact with Orb6p and four that interact with Tea1p in this system, and that were identified multiple times in the screen. Clones containing bot1+ were isolated 22 times in the Orb6p screen and eight times in the Tea1p screen. All clones contained the full-length bot1 sequence, although they usually lacked the initial ATG codon. For beta-galactosidase activation, three independent transformants were assayed for each condition.
(§3) To identify novel components of the Orb6p pathway, a two-hybrid screen was performed to identify cDNAs encoding proteins that interact with Orb6p. One of these, isolated 22 times in this screen, was a novel protein that we named Bot1p. […] The specificity of the positive interaction between Orb6p and Bot1p in the two-hybrid system was controlled by cotransformation of pAS1-orb6 and pACT-bot1 independently with a number of control plasmids. Co-expression of SNF1p or SNF4p was used as positive controls. Orb6p was unable to support the activation of the LACZ-GAL4 and HIS3-GAL4 promoters when co-expressed with GAL4 activation domain fused to SNF4p, or with the GAL4 activation domain (GAD) alone. Bot1p was unable to support the activation of the LACZ-GAL4 and HIS3-GAL4 promoters when co-expressed with the GAL4 binding domain fused to p53, Cdc23p, GAL4 DNA binding domain (GBD) alone, or fused to SNF1p or Cdt1p.

[5] = biological target: T4, Orb6p fused to the DNA binding domain of GAL4 (pAS1-orb6) (Schizosaccharomyces pombe, UniProt P04386 1-147; O13310 1-469, limits assumed); test: yeast two-hybrid (HIS3 and LACZ reporters)
From the text: as §2, §3

[6] = biological target: T4, Orb6p fused to the DNA binding domain …; test: LACZ-GAL4 reporter in strain BY3161, control of the three-hybrid test

| Binder | binding result [1] | binding result [2] | GST-Orb6p autophosphorylation (in vitro protein kinase activity) [3] | in vitro phosphorylation of Bot1p by Orb6p [3] | binding result [4] | binding result [5] | binding result [6] |
| --- | --- | --- | --- | --- | --- | --- | --- |
| GST-tagged Orb6p expressed in fission yeast (pESP-GSTOrb6+) (enzyme, Schizosaccharomyces pombe, UniProt O13310 1-469, looked up, not shown: a dimerising Fc or GST, also called GST-Orb6p) MDKNDYLHFERNPSLFPKSTLDKVQKTKKYIEHYYKVAVDHAVERNQRRINLEQRLATERGSEERKNRQLRASGEKESQFLRFRRTRLSLEDFSTIKVIGKGAFGEVRLVQKLDTGKIYAMKSLLKTEMFKRDQLAHVKAERDLLVESDSPWVVSLYYAFQDSLYLYLIMEFLPGGDLMTMLINYDTFSEDVTRFYMAECVLAIADVHRMGYIHRDIKPDNILIDRDGHIKLSDFGLSTGFYKQDQSASYMKPRTGNTVKRGQMVDAIWLTMSSKDKMATWKKNRRVMAYSTVGTPDYIAPEIFLQQGYGQDCDWWSLGAIMFECLIGWPPFCSENSHETYRKIINWRETLTFPNDIHLSIEARDLMDRLMTDSEHRLGRGGAIEIMQHPFFTGIDWDHIRETAAPFIPNLKSITDTHYFPVDELEQVPEQPVTQQPASVDPQTLEQTNLAFLGYTYKKFNYLTMKGAL | no binding | no binding | The level of GST-Orb6p autophosphorylation was the same for proteins isolated from control and Bot1p-overexpressing cells | Orb6p-associated Bot1p was not phosphorylated in vitro by Orb6p |  |  |  |
| GAL4 activation domain (GAD) alone (other, UniProt P04386 768-881, looked up, Two-hybrid negative control) ANFNQSGNIADSSLSFTFTNSSNGPNLITTQTNSQALSQPIASSNVHDNFMNNEITASKIDDGNNSKPLSPGWTDQTAYNAFGITTGMFNTTTMDDVYNYLFDDEDTPPNPKKE |  |  |  |  | no binding | no binding |  |
| GAL4 activation domain fused to SNF4p (pSE1111, pACT-SNF4) (other, UniProt P12904 1-322, looked up, not shown: large carriers) MKPTQDSQEKVSIEQQLAVESIRKFLNSKTSYDVLPVSYRLIVLDTSLLVKKSLNVLLQNSIVSAPLWDSKTSRFAGLLTTTDFINVIQYYFSNPDKFELVDKLQLDGLKDIERALGVDQLDTASIHPSRPLFEACLKMLESRSGRIPLIDQDEETHREIVVSVLTQYRILKFVALNCRETHFLKIPIGDLNIITQDNMKSCQMTTPVIDVIQMLTQGRVSSVPIIDENGYLINVYEAYDVLGLIKGGIYNDLSLSVGEALMRRSDDFEGVYTCTKNDKLSTIMDNIRKARVHRFFVVDDVGRLVGVLTLSDILKYILLGSN |  |  |  |  | no binding |  | no binding |
